# Assay results reported in patent publication US12269902B2, “Peptide compounds and peptide conjugates for the treatment of cancer through receptor-mediated chemotherapy” (TRANSFERT PLUS, S.E.C., priority 2015, dated 2025).
# Residues, ends and D or L forms follow the SMILES beside them. *: point of attachment. X1 = CC(=O)O[C@@]12CO[C@@H]1C[C@H](O)[C@@]1(C)C(=O)[C@H](O)C3=C(C)[C@@H](OC(=O)[C@H](OC(=O)CCC(=O)*)[C@@H](NC(=O)OC(C)(C)C)c4ccccc4)C[C@@](O)([C@@H](OC(=O)c4ccccc4)[C@H]21)C3(C)C; Biotin = O=C1N[C@H]2[C@H](CS[C@H]2CCCCC(=O)*)N1
# Tests used:
# [1] = Plasma pharmacokinetics of radiolabeled compounds in mice; type: in vivo; conditions: mice iv, Docetaxel 2.2 mg/kg, KBA105 5 mg/kg
# Method: FIG. 20 is a graph showing concentration of unconjugated and conjugated Docetaxel as a function of time. Mice were injected iv with radiolabeled [^3H]-Docetaxel or radiolabeled [^125I]-KBA105 at an equivalent dose of Docetaxel (Docetaxel=2.2 mg/kg; KBA105=5 mg/kg). Plasma samples were collected at different time points and radioactivity quantified. Results are expressed in terms of KBA105 or Docetaxel concentration in plasma as a function of time. Area under the curve for the time period (AUC1-24) was estimated for KBA105 and Docetaxel using GraphPad Prism software. Ratio between AUC1-24 for KBA105 and Docetaxel was calculated to be around 35.
# To evaluate the impact of the drug conjugation to Katana Biopharma peptide on drug pharmacokinetics and tissue distribution, mice were injected with [^125I]-Docetaxel-Katana peptide conjugate. Plasma was collected at different times (FIG. 19A). Radioactivity associated with plasma was quantified and pharmacokinetic parameters were determined. […] In FIG. 20, plasma concentration of Docetaxel-Katana peptide conjugate was compared to that of unconjugated Docetaxel after iv bolus injection.
# After radiolabeling free iodine was remove. […] Plasma was collected at the indicated times.
# [2] = tested on: SK-MEL-28 skin cancer cells; assay: [3H]-Thymidine incorporation cell proliferation assay, SK-MEL-28; type: cell-based; conditions: SK-MEL-28 (Skin); Table 4; 2 or 3 days
# Method: (§1) The effect of the Docetaxel-Katana peptide conjugate on various cell line proliferations was evaluated and compared to unconjugated Docetaxel (Table 4). IC50 values obtained for the Docetaxel-Katana peptide conjugate were very similar to those of Docetaxel in the cancer cells tested.
# (§2) The phytochemical Curcumin, unconjugated and conjugated, was also tested on cancer cell proliferation (FIG. 28). Breast cancer cells (MDA-MB231) were incubated with increasing concentrations of KBC106 or curcumin. After 72 hrs, thymidine incorporation assay was performed to assess the anti-proliferative properties of both molecules. IC50 values were extracted from the anti-proliferative curves. […] Proliferation assay was also performed using different types of cancer cells (ovarian, breast, skin and colorectal cancer cells). IC50 values were calculated from the anti-proliferation curves. In all cases, the Curcumin conjugate (KBC106) had stronger anti-proliferative activity (9-100 fold) than unconjugated Curcumin, as shown in Table 6 below.
# (§3) Cancer cells were cultured in 96-well white plates (Perkin Elmer). They were synchronized for 24 hours in serum-deprived medium. After incubation of cells with unconjugated drugs (docetaxel, cabazitaxel, doxorubicin) or with drug-Katana peptide conjugates for 2 or 3 days, all media was aspirated and cells were pulse-labeled for 4 hours at 37° C./[…]/5% CO2 with media containing 2.5 μCi/mL [methyl-3H] thymidine (Perkin Elmer). Cells were washed, fixed, and dried before addition of scintillation fluid (Microscint 0, Perkin Elmer). After 24 hours, cell-associated tritium was quantified by counting on a plate reader (TopCount, Perkin Elmer). Incorporated [3H] thymidine was plotted for each drug concentration.
# [3] = tested on: MDA-MB-231 breast cancer cells; assay: cells; conditions: MDA-MB-231 (Breast); Table 4; 2 or 3 days
# Method: Breast cancer cells (MDA-MB231) were incubated with increasing concentrations of KBC106 or curcumin. After 72 hrs, thymidine incorporation assay was performed to assess the anti-proliferative properties of both molecules. IC50 values were extracted from the anti-proliferative curves.
# as §2, with “curves.” for “curves. In all cases, the Curcumin conjugate (KBC106) had stronger anti-proliferative activity (9-100 fold) than unconjugated Curcumin, as shown in Table 6 below.”
# as §3
# [4] = molecular target: P-gp (MDR1) (Homo sapiens, UniProt P08183); assay: Drug accumulation in MDCK-MDR1 cells with or without Cyclosporin A; conditions: 50 nM, 1 hr, 37° C., CsA 10 μM
# Method: 6A. […] 6B. MDCK-MDR1 cells were incubated with 50 nM of either [^14C]-Doxorubicin or [^125I]-Katana peptide-Doxorubicin conjugate (KBB106) for 1 hr at 37° C. in the presence or absence of CsA (10 μM). After the incubation, cells were washed and radioactivity accumulated in cells was quantified. The results were expressed in terms of uptake fmol/mg of protein.
# In order to determine whether the anticancer drug-Katana-peptide conjugates could also be P-gp substrates, MDCK-transfected cells with human MDR1 were used (MDCK-MDR1).
# Cells were washed three times with PBS and preincubated for 30 min at 37° C. in culture medium without serum with or without the P-gp inhibitor Cyclosporin A (10 μM). Radiolabelled molecules (50 nM) were then added for 60 min. The cells were rapidly washed three times with ice-cold PBS and then lysed in 500 µL of 0.1 M NaOH. The amount of radiolabelled molecules retained in the cells was counted by β-scintillation counting (Packard model 1900 TR). An aliquot of cell lysate was used in parallel to determine cellular protein concentration.
# [5] = tested on: SKOV3 cancer cells; assay: SKOV3 luciferase subcutaneous xenograft tumour model (Docetaxel, KBA-105); conditions: mice, treatments at 20 mg/kg/week as printed (equivalent dose of Docetaxel)
# Method: Mice were implanted in the flank with SKOV3 cancer cells. Tumor growth was monitored by luminescence using the Near Infrared imaging system from Carestream.
# Results are expressed in terms of luminescence intensity as a function of post-treatment days.
# To further evaluate the in vivo efficacy of the Katana-drug conjugate, SKOV3 cancer cells expressing luciferase were implanted in the mouse flank. […] Tumour imaging was performed on different days by injecting the luciferase substrate luciferin and by using the Xtreme imaging system from Carestream.
# Luminescence was then quantified and plotted as a function of days after implantation (FIG. 23).
# SKOV3 cancer cells (2.5×10^6 cells) expressing luciferase were implanted in the right flank of mice. Tumour growth was monitored using near infrared (NiR) imaging system from Carestream by injecting the luciferase substrate luciferin. […] Luminescence associated with tumour growth of SKOV3/Luc cancer cells was quantified as a function of post-treatment days with the instrument software.
# [6] = tested on: ES-2 ovarian cancer cells; assay: [3H]-Thymidine incorporation cell proliferation assay, ES-2; type: cell-based; conditions: ES-2 (Ovary); Table 4; 2 or 3 days
# Method: as §1, §2, §3
# [7] = Tissue distribution of radiolabeled compounds in mice
# Method: CD-1 mice were injected with the radiolabeled conjugate at 5 mg/kg via iv bolus injections (21A) or […] of radiolabeled Docetaxel (21B). At the indicated times (1 h, 6 h, 24 h) mice were sacrificed and perfused with saline for 8 min. Tissues were then collected and radioactivity was measured. Results are expressed in terms of ng/g of tissue.
# At the indicated times (1, 6 and 24 hours), whole body perfusion was performed for 8 min with saline at a flow rate of 8 ml/min after […] hours iv bolus injections.
# After radiolabeling free iodine was remove. Mice were injected with Docetaxel-[^125I]-Katana peptide conjugate at 5 mg/kg. Plasma was collected at the indicated times. After 1, 2 and 24 hours some mice were perfused with saline, sacrificed and tissues were collected. Radioactivity in the plasma and tissues were measured in a radioactivity counter and results were calculated and expressed in terms of […] for the plasma or ng/g of tissues.
# [8] = tested on: A-375 skin cancer cells; assay: [3H]-Thymidine incorporation cell proliferation assay, A-375; type: cell-based; conditions: A-375 (Skin); Table 4; 2 or 3 days
# Method: as §1, §2, §3
# [9] = molecular target: T1, sortilin (Homo sapiens, UniProt Q99523); assay: biochemical; type: binding; conditions: read-out: ka
# T1 construct: Increasing concentrations of a soluble form of sortilin was then injected over the sensor chip
# T1 sequence (Q99523 78-755 limits assumed): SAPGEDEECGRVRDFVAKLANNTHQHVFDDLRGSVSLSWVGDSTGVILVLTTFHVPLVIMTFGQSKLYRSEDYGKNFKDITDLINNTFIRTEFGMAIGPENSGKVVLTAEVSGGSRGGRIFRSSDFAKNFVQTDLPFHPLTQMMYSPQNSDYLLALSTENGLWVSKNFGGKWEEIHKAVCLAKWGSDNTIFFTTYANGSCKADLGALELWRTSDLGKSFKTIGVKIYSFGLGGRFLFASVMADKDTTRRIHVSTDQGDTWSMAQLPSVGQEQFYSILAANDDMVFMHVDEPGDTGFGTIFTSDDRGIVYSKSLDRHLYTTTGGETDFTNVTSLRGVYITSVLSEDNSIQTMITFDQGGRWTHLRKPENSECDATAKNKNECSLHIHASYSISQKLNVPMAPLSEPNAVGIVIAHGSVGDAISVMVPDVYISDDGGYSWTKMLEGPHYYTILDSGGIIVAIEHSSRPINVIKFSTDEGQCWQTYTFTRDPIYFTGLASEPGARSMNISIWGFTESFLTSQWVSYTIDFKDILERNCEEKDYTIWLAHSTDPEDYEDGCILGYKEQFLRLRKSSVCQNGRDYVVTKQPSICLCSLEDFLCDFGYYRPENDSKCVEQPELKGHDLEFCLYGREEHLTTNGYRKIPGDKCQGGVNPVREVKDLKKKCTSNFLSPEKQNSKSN
# Method: Biotinylated Katana peptide was immobilized on a streptavidin sensor chip. A. Soluble sortilin was then injected over the immobilized peptide. The surface plasmon resonance signal was then monitored over time.
# Surface plasmon resonance (SPR) was first used to investigate whether these peptides could be recognized by sortilin. For this approach, biotin was added on the C-terminal end of the Katana-Biopharma peptide during peptide synthesis. The biotinylated-peptide (KBP-103) was then immobilized on a streptavidin sensor chip using recommended procedures from the manufacturer. Increasing concentrations of a soluble form of sortilin was then injected over the sensor chip. Interactions between immobilized KBP-103 and the receptor sortilin was then monitored in real time. A representative interaction curve is shown in FIG. 1, and from the sensorgram curves the affinity constant as well as Ka and Kd were determined and are indicated in Table 2. Affinity constants (KD, Ka and […]) were extracted from various injections using the BIA evaluation software.
# Sequence of P-gp (MDR1) (P08183 whole entry): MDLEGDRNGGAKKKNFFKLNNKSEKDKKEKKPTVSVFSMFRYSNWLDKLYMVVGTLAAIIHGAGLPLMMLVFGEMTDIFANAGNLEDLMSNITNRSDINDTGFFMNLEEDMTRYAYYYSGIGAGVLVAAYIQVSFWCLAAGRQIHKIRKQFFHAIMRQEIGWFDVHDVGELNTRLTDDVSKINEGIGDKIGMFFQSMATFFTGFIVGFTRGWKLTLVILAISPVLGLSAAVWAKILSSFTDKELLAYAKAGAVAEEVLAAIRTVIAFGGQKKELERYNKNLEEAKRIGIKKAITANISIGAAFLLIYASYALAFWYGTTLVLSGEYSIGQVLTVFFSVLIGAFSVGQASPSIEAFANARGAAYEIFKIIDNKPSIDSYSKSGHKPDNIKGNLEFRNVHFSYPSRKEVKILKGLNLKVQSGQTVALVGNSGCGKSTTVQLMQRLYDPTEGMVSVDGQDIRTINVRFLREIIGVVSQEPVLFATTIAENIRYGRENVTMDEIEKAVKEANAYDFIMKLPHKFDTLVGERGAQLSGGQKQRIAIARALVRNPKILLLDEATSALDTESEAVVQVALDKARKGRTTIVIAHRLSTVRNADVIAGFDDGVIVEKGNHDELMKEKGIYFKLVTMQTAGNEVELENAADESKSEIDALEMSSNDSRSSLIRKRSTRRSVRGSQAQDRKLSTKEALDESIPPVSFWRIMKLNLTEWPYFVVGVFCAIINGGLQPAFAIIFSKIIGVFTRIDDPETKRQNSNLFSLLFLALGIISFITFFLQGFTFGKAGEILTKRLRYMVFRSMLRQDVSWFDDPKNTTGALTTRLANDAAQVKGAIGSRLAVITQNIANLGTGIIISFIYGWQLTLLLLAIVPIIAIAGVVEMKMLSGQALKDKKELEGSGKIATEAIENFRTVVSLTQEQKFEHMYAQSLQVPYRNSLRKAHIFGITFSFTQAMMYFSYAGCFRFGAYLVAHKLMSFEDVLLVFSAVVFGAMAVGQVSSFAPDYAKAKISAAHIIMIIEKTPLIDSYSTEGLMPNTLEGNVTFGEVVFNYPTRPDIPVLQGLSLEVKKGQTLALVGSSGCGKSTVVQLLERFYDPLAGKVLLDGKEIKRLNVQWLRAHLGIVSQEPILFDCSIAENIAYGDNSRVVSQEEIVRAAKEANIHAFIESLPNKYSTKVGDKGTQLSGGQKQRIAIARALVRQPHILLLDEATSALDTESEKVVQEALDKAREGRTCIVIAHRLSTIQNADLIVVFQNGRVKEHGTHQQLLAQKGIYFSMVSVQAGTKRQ
smiles,measurement,setting,value
CSCC[C@H](NC(=O)[C@H](CC(N)=O)NC(=O)[C@H](CCCNC(=N)N)NC(=O)[C@@H](NC(=O)CNC(=O)[C@H](C)NC(=O)[C@H](CCCCNC(=O)CCC(=O)O[C@@H](C(=O)O[C@H]1C[C@@]2(O)[C@@H](OC(=O)c3ccccc3)[C@@H]3[C@]4(OC(C)=O)CO[C@@H]4C[C@H](O)[C@@]3(C)C(=O)[C@H](O)C(=C1C)C2(C)C)[C@@H](NC(=O)OC(C)(C)C)c1ccccc1)NC(=O)[C@H](C)NC(=O)[C@H](CCCNC(=N)N)NC(=O)[C@@H](NC(=O)CNC(C)=O)C(C)C)C(C)C)C(=O)N[C@@H](Cc1ccccc1)C(=O)N[C@@H](CCCCNC(=O)CCC(=O)O[C@@H](C(=O)O[C@H]1C[C@@]2(O)[C@@H](OC(=O)c3ccccc3)[C@@H]3[C@]4(OC(C)=O)CO[C@@H]4C[C@H](O)[C@@]3(C)C(=O)[C@H](O)C(=C1C)C2(C)C)[C@@H](NC(=O)OC(C)(C)C)c1ccccc1)C(=O)N[C@@H](CO)C(=O)N[C@@H](CCC(=O)O)C(=O)N[C@@H](CO)C(=O)N[C@@H](Cc1ccc(O)cc1)C(=O)O [KBA-105] (Ac-GVRAK(X1)AGVRNMFK(X1)SESY-OH; C-terminus assumed),Ratio between AUC1-24 for KBA105 and Docetaxel,[1],around 35
same,IC50,[2],90 pM
same,IC50,[3],1030 pM
same,effect of CsA on accumulation,[4],lack of CsA effect
same,effect on body weight,[5],unaffected
same,IC50,[6],700 pM
same,Ratio (Estimated Docetaxel/Docetaxel) (AUC1-24),[7]; Brain,21.3
same,Ratio KBA105/Docetaxel (AUC1-24),[7]; Brain,48.3
same,Ratio (Estimated Docetaxel/Docetaxel) (AUC1-24),[7]; Heart,4.5
same,Ratio KBA105/Docetaxel (AUC1-24),[7]; Heart,10.3
same,Ratio (Estimated Docetaxel/Docetaxel) (AUC1-24),[7]; Kidney,5.3
same,Ratio KBA105/Docetaxel (AUC1-24),[7]; Kidney,12.0
same,Ratio (Estimated Docetaxel/Docetaxel) (AUC1-24),[7]; Liver,26.4
same,Ratio KBA105/Docetaxel (AUC1-24),[7]; Liver,60
same,Ratio (Estimated Docetaxel/Docetaxel) (AUC1-24),[7]; Lung,221
same,Ratio KBA105/Docetaxel (AUC1-24),[7]; Lung,500
same,Ratio (Estimated Docetaxel/Docetaxel) (AUC1-24),[7]; Mammary,1.5
same,Ratio KBA105/Docetaxel (AUC1-24),[7]; Mammary,3.3
same,Ratio (Estimated Docetaxel/Docetaxel) (AUC1-24),[7]; Ovary,0.7
same,Ratio KBA105/Docetaxel (AUC1-24),[7]; Ovary,1.6
same,Ratio (Estimated Docetaxel/Docetaxel) (AUC1-24),[7]; Spleen,25.0
same,Ratio KBA105/Docetaxel (AUC1-24),[7]; Spleen,24.9
same,IC50,[8],430 pM
CC[C@H](C)[C@H](N)C(=O)N[C@@H](CCCCN)C(=O)N[C@@H](CC(C)C)C(=O)N[C@@H](CO)C(=O)NCC(=O)NCC(=O)N[C@H](C(=O)N[C@@H](CCC(N)=O)C(=O)N[C@@H](C)C(=O)N[C@@H](CCCCN)C(=O)N[C@@H](C)C(=O)NCC(=O)N[C@H](C(=O)N[C@H](C(=O)N[C@@H](CC(N)=O)C(=O)N[C@@H](CCSC)C(=O)N[C@@H](Cc1ccccc1)C(=O)N[C@@H](CCCCN)C(=O)N[C@@H](CO)C(=O)N[C@@H](CCC(=O)O)C(=O)N[C@@H](CO)C(=O)N[C@@H](Cc1ccc(O)cc1)C(=O)N[C@@H](CCCCNC(=O)CCCC[C@@H]1SC[C@@H]2NC(=O)N[C@@H]21)C(=O)O)[C@@H](C)CC)C(C)C)C(C)C [KBP-103] (H-IKLSGGVQAKAGVINMFKSESYK(Biotin)-OH),kon,[9],683000 M⁻¹ s⁻¹
